Tests used:
[1] = target: BG505.SOSIP.664.201C-433C HIV-1 Env ectodomain trimer; experiment: SPR
[2] = target: BG505.SOSIP.664.201C-433C HIV-1 Env ectodomain trimer; experiment: BLI
[3] = target: BG505 SOSIP.664 HIV-1 Env ectodomain trimer; experiment: SPR; CD4 Ig capture
[4] = target: T1, BG505 SOSIP.664 trimer+sCD4 complex (human, UniProt P01730 26-208); experiment: SPR; 17b capture
[5] = target: BG505.SOSIP.664.201C-433C HIV-1 Env ectodomain trimer; experiment: SPR; +sCD4
[6] = target: BG505.SOSIP.664.201C-433C HIV-1 Env ectodomain trimer; experiment: BLI; remark: listed apart in the source
[7] = target: BG505 SOSIP.664 HIV-1 Env ectodomain trimer; experiment: BLI
[8] = target: BG505.SOSIP.664.201C-433C HIV-1 Env ectodomain trimer; experiment: SPR; remark: listed apart in the source
[9] = target: T1, BG505 SOSIP.664 trimer+sCD4 complex; experiment: SPR
[10] = target: BG505 SOSIP.664 HIV-1 Env ectodomain trimer; experiment: SPR
[11] = target: BG505 SOSIP.664 HIV-1 Env ectodomain trimer; experiment: SPR; 2G12 capture
[12] = target: BG505 SOSIP.664 HIV-1 Env ectodomain trimer; experiment: SPR; CD4 Ig capture; remark: listed apart in the source

| Binder | Kd [1] | Kd [2] | Kd [3] | Kd [4] | Kd [5] | Kd [6] | Kd [7] | Kd [8] | Kd [9] | Kd [10] | Kd [11] | Kd [12] |
| --- | --- | --- | --- | --- | --- | --- | --- | --- | --- | --- | --- | --- |
| 35O22 Fab (Fab, V domains shown) VH: QGQLVQSGAELKKPGASVKISCKTSGYRFNFYHINWIRQTAGRGPEWMGWISPYSGDKNLAPAFQDRVIMTTDTEVPVTSFTSTGAAYMEIRNLKFDDTGTYFCAKGLLRDGSSTWLPYLWGQGTLLTVSS VL: QSVLTQSASVSGSLGQSVTISCTGPNSVCCSHKSISWYQWPPGRAPTLIIYEDNERAPGISPRFSGYKSYWSAYLTISDLRPEDETTYYCCSYTHNSGCVFGTGTKVSVL | 3.04 nM | 27.7 nM | 28 nM | 27.2 nM |  |  |  |  |  |  |  |  |
| 447-52D antibody (antibody, V domains shown) VH: EVQLVESGGGLVKPGGSLRLTCVASGFTFSDVWLNWVRQAPGKGLEWVGRIKSRTDGGTTDYAASVKGRFTISRDDSKNTLYLQMNSLKTEDTAVYSCTTDGFIMIRGVSEDYYYYYMDVWGKGTTVTVSS VL: QSVLTQPPSVSAAPGQKVTISCSGSSSNIGNNYVLWYQQFPGTAPKLLIYGNNKRPSGIPDRFSGSKSGTSATLGITGLQTGDEADYFCATWDSGLSADWVFGGGTKLTVL |  |  |  |  | > 1000 nM | > 4000 nM | > 4000 nM | > 1000 nM | 1.2 nM | > 1000 nM |  |  |
| F105 antibody (antibody, V domains shown) VH: QVQLQESGPGLVKPSETLSLTCTVSGGSISSHYWSWIRQSPGKGLQWIGYIYYSGSTNYSPSLKSRVTISVETAKNQFSLKLTSMTAADTAVYYCARGPVPAVFYGDYRLDPWGQGTLVTVSS VL: EIVLTQSPGTLSLSAGERATLSCRASQSVSSRYLAWYQQKPGQAPRLLIYGASSRATGIPDRFSGSGSGTDFTLTISRVEPEDFAVYYCQQYDNSVCTFGQGTKLEIK |  |  |  |  |  | > 4000 nM | > 4000 nM | > 1000 nM |  | > 1000 nM |  |  |
| VRC01 (antibody, V domains shown) VH: QVQLVQSGGQMKKPGESMRISCRASGYEFIDCTLNWIRLAPGKRPEWMGWLKPRGGAVNYARPLQGRVTMTRDVYSDTAFLELRSLTVDDTAVYFCTRGKNCDYNWDFEHWGRGTPVIVSS VL: EIVLTQSPGTLSLSPGETAIISCRTSQYGSLAWYQQRPGQAPRLVIYSGSTRAAGIPDRFSGSRWGPDYNLTISNLESGDFGVYYCQQYEFFGQGTKVQVDI | 1.43 nM | 2.81 nM |  |  |  |  |  |  |  |  |  |  |
| PGT145 antibody (antibody, V domains shown) VH: QVQLVQSGAEVKKPGSSVKVSCKASGNSFSNHDVHWVRQATGQGLEWMGWMSHEGDKTGLAQKFQGRVTITRDSGASTVYMELRGLTADDTAIYYCLTGSKHRLRDYFLYNEYGPNYEEWGDYLATLDVWGHGTAVTVSS VL: EVVITQSPLFLPVTPGEAASLSCKCSHSLQHSTGANYLAWYLQRPGQTPRLLIHLATHRASGVPDRFSGSGSGTDFTLKISRVESDDVGTYYCMQGLHSPWTFGQGTKVEIK |  |  |  |  |  | 1.68 nM | 1.8 nM | 7.22 nM |  | 4.38 nM | 22.8 nM |  |
| PGT151 Fab (Fab, V domains shown) VH: RVQLVESGGGVVQPGKSVRLSCVVSDFPFSKYPMYWVRQAPGKGLEWVAAISGDAWHVVYSNSVQGRFLVSRDNVKNTLYLEMNSLKIEDTAVYRCARMFQESGPPRLDRWSGRNYYYYSGMDVWGQGTTVTVSS VL: DIVMTQTPLSLSVTPGQPASISCKSSESLRQSNGKTSLYWYRQKPGQSPQLLVFEVSNRFSGVSDRFVGSGSGTDFTLRISRVEAEDVGFYYCMQSKDFPLTFGGGTKVDLKR |  |  |  |  |  | 202 nM | 135 nM | 78.4 nM |  | 158 nM | 144 nM | 106 nM |
